Measured values published in paper doi:10.1101/708180.

Columns and labels:
[1] = target: cHSP27, isolated α-crystallin domain of HSP27 (residues 84-171), oxidized disulfide-linked dimer (human) (UniProt P04792); assay: NMR titration
[2] = target: cHSP27, isolated α-crystallin domain of HSP27 (residues 84-171), oxidized disulfide-linked dimer (human) (UniProt P04792); assay: NMR CPMG relaxation dispersion
[3] = target: cHSP27, isolated α-crystallin domain of HSP27 (residues 84-171), oxidized disulfide-linked dimer (human) (UniProt P04792); assay: NMR titration + other: NMR CPMG relaxation dispersion

C-terminal peptide of HSP27 containing the WT IxI/V (IPV) motif, sequence (P04792 whole entry, looked up, tested part not stated): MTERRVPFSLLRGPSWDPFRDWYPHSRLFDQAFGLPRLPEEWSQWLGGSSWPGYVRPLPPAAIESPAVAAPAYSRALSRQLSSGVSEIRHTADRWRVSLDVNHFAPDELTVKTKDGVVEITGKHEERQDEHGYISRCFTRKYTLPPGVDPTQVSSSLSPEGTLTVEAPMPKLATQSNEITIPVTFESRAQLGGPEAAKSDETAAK
cHSP27, isolated α-crystallin domain of HSP27 (residues 84-171), oxidized disulfide-linked dimer (human), sequence (P04792 84-171): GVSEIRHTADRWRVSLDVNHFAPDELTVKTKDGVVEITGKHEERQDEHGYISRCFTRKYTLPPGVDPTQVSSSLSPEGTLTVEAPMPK
C-terminal peptide of HSP27 bearing the P182L mutation (ILV motif), sequence (P04792 whole entry P182L, looked up, tested part not stated): as the sequence (P04792 whole entry, looked up, tested part not stated) above, with P182L counted along it

Kd [1] [µM] | Kd [2] [µM] | koff [2] [s⁻¹] | kon [2] [M⁻¹ s⁻¹] | fold difference of kon (from CSP Kd and CPMG koff) against the WT peptide [3] [fold] | Substance
1200 | 10200 | 840 | 82600 | 10 | C-terminal peptide of HSP27 bearing the P182L mutation (ILV motif) (from UniProt P04792 179-186)
125 | 2510 | 759 | 302000 |  | C-terminal peptide of HSP27 containing the WT IxI/V (IPV) motif (from UniProt P04792 179-186)
